Experimental data published in patent publication US5597569A (priority 1994, dated 1997).
Read-outs that look alike come from different tables or passages of the source.

Assays:
[1] = test system: protein synthesis in rabbit reticulocyte lysate
mice [2] = conditions: for % Survival / LD50: mice; for % Survival: >14 days; for LD50: single dose
liver = conditions: for liver lesions: histochemical analysis
[3] = test system: H3396 cell membranes (BR96 antigen); assay type: binding, human; conditions: FIG. 10; ELISA, 10 μg/ml H3396 membranes
mice [4] = conditions: intraperitoneal, literature; cited from earlier work
[5] = test system: protein synthesis in rabbit reticulocyte lysate with wheat germ ribosomes; conditions: cited from earlier work

B1: bryodin 2: novel type I ribosome-inactivating protein of about 27,000 daltons isolated from the roots of Bryonia dioica (SEQ ID NO: 15) (protein)
chain: MRSIGFYSVLALYVGAHVTEDVDINFSLIGATGATYKTFIRNLRTKLTVGTPRVYDIPVLRNAAAGLARFQLVTLTNYNGESVTVALDVVNVYVVAYRAGNTAYFLADASTEANNVLFAGINHVRLPYGGNYDGLETAAGRISRENIELGFSEISSAIGNMFRHNPGTSVPRAFIVIIQTVSEAARFKYIEQRVSENVGTKFKPDPAFLSLQNAWGSLSEQIQIAQTRGGEFARPVELRTVSNTPTFVTNVNSPVVKGIALLLYFRVNVGTDNVFAMSLSTY
- EC50 [1]: 0.017 nM
- toxicity to mice relative to bryodin 1 (mice [2]; i.p. and i.v.): slightly more toxic to mice than bryodin 1
- % Survival (mice [2]; i.p., 7 mg/kg): 100%
- % Survival (mice [2]; i.p., 8 mg/kg): 50%
- % Survival (mice [2]; i.p., 10 mg/kg): 0%
- % Survival (mice [2]; i.p., 12 mg/kg): 0%
- % Survival (mice [2]; i.v., 5 mg/kg): 100%
- % Survival (mice [2]; i.v., 6 mg/kg): 100%
- % Survival (mice [2]; i.v., 7 mg/kg): 100%
- % Survival (mice [2]; i.v., 8 mg/kg): 75%
- % Survival (mice [2]; i.v., 10 mg/kg): 75%
- % Survival (mice [2]; i.v., 12 mg/kg): 0%
- % Survival (mice [2]; i.v., 14 mg/kg): 0%
- LD50 (mice [2]; intraperitoneal): 8 mg/kg
- LD50 (mice [2]; intraperitoneal, listed as BD2): about 8 mg/kg
- LD50 (mice [2]; intravenous): greater than 10 mg/kg
- liver protein in blood chemistry screen (liver; blood chemistry, data not shown): increased liver protein
- liver lesions (liver): showed liver lesions
- liver lesions (liver; listed as BD2): presence of liver lesions
- SGOT (liver; injected mice): elevated
- SGPT (liver; injected mice): elevated
- cause of death at lethal dose (liver; necropsy): liver toxicity was the cause of death
- binding to H3396 membranes [3]: no detectable binding

B2: gelonin: a type 1 ribosome-inhibiting protein (protein)
chain: GLDTVSFSTKGATYITYVNFLNELRVKLKPEGNSHGIPLLRKKCDDPGKCFVLVALSNDNGQLAEIAIDVTSVYVVGYQVRNRSYFFKDAPDAAYEGLFKNTIKTRLHFGGSYPSLEGEKAYRETTDLGIEPLRIGIKKLDENAIDNYKPTEIASSLLVVIQMVSEAARFTFIENQIRNNFQQRIRPANNTISLENKWGKLSFQIRTSGANGMFSEAVELERANGKKYYVTAVDQVKPKIALLKFVDKDPK
- EC50 [1]: 0.049 nM

B3: bryodin 1: type I ribosome-inactivating protein from the root of Bryonia dioica; 29 kDa band identical to the bryodin described by Stirpe (protein)
chain: DVSFRLSGATTTSYGVFIKNLREALPYERKVYNIPLLRSSISGSGRYTLLHLTNYADETISVAVDVTNVYIMGYLAGDVSYFFNEASATEAAKFVFKDAKKKVTLPYSGNYERLQTAAGKIRENIPLGLPALDSAITTLYYYTASSAASALLVLIQSTAESARYKFIEQQIGKRVDKTFLPSLATISLENNWSALSKQIQIASTNNGQFESPVVLIDGNNQRVSITNASARVVTSNIALLLNRNNIA
- LD50 (mice [4]): 14.5 mg/kg
- % Survival (mice [2]; i.p., 10 mg/kg): 100%
- % Survival (mice [2]; i.p., 12 mg/kg): 100%
- % Survival (mice [2]; i.p., 14 mg/kg): 100%
- % Survival (mice [2]; i.p., 16 mg/kg): 100%
- % Survival (mice [2]; i.v., 12 mg/kg): 100%
- % Survival (mice [2]; i.v., 16 mg/kg): 100%
- % Survival (mice [2]; i.v., 18 mg/kg): 100%
- % Survival (mice [2]; i.v., 20 mg/kg): 100%
- binding to H3396 membranes [3]: no detectable binding
- ID50, inhibition of protein synthesis [5]: 3.6 ng/mL
